Our source for the IC50 and EC50 values is patent publication US20210024646A1 (published 2021).

The IC50 is the concentration needed to halve the response being measured. In general, EC50 refers to the midpoint of the concentration-response curve.

In experiment [1] the target is T1, Carbon-terminal polyhistidine-labeled recombinant cynomolgus monkey CD73 enzyme (cynomolgus monkey, UniProt A0A2K5V5U7 1-547).
T1 chain: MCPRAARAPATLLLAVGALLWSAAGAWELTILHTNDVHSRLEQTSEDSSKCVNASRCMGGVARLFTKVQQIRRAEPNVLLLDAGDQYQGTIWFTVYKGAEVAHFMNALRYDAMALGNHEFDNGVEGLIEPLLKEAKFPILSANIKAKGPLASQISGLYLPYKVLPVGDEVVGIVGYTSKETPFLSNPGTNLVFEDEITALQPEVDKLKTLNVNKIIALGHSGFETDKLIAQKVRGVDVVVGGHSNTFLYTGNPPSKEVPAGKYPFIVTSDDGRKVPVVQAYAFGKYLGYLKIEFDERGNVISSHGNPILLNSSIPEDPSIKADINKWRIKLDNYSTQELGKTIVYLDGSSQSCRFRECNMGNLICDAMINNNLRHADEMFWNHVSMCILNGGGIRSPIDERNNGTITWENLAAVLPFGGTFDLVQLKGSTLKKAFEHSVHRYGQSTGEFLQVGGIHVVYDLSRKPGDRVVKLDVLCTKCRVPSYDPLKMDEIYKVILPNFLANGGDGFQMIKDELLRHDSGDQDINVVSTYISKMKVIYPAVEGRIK
As to the kind of experiment: enzyme inhibition; left table.

Experiment [2] deals with T1, Carbon-terminal polyhistidine-labeled …. The experiment is described as follows: enzyme inhibition; right table.
In experiment [3] the target is T2, CD73 on the surface of human tumor cells (human, UniProt P21589 27-549).
T2 chain: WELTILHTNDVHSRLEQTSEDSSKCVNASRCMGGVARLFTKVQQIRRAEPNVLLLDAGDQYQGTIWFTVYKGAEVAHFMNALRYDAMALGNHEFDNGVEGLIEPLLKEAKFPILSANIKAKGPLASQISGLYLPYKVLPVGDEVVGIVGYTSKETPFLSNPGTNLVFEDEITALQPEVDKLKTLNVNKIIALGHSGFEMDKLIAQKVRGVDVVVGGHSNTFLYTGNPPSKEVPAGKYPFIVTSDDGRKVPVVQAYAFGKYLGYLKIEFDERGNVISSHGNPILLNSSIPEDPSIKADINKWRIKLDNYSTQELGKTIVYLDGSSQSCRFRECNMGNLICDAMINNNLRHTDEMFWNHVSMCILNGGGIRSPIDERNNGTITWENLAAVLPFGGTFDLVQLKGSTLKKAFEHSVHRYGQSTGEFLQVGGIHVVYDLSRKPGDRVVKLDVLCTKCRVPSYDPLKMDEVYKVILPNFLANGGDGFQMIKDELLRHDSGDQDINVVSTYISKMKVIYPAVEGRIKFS
As to the kind of experiment: FACS; MDA-MB-231 cells, right table.

For experiment [4], the target named is T2, CD73 on the surface of human tumor cells. The experiment is described as follows: FACS; MDA-MB-231 cells, left table.
In experiment [5] the target is T3, extracellular domain of human CD73 protein (CD73-ECD), C-terminus polyhistidine-tagged (UniProt P21589 27-547).
T3 chain: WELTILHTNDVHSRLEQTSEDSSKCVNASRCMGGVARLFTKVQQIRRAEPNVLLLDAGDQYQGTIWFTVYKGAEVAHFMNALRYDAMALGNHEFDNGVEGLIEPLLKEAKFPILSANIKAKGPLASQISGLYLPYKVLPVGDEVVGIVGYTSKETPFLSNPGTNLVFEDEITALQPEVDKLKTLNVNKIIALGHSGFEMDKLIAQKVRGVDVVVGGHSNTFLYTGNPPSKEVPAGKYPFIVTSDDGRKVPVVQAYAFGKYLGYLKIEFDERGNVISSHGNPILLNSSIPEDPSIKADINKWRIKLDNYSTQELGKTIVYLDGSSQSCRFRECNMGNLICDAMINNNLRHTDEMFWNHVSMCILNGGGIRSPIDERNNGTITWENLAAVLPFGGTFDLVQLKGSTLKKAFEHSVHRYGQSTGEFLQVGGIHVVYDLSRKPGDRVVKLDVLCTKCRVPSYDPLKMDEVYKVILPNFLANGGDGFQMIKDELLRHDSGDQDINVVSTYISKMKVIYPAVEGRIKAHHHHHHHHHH
As to the kind of experiment: enzyme inhibition; right table.

The target of experiment [6] is T3, extracellular domain of human CD73 …. As to the kind of experiment: enzyme inhibition; left table.
The target of experiment [7] is T2, CD73 on the surface of human tumor cells. As to the kind of experiment: FACS; MDA-MB-231 cells. A general note: A flow cytometer gives signals particle by particle.
Experiment [8] has the same target. The experiment is described as follows: FACS; NCI-H1299 cells, left table.
The target of experiment [9] is T3, extracellular domain of human CD73 …. As to the kind of experiment: ELISA. For orientation: In an ELISA, binding on a coated surface is turned into a signal by an enzyme label.
In experiment [10] the target is T2, CD73 on the surface of human tumor cells. The experiment is described as follows: FACS; NCI-H1299 cells, right table.
Experiment [11] concerns the target T3, extracellular domain of human CD73 …. As to the kind of experiment: ELISA.
The target in experiment [12] is T2, CD73 on the surface of human tumor cells. The experiment is described as follows: FACS; NCI-H1299 cells, right table.
Experiment [13] has the same target. As to the kind of experiment: FACS; MDA-MB-231 cells, right table.
Experiment [14] shares this target. As to the kind of experiment: FACS; NCI-H1299 cells, left table.
Experiment [15] has the same target. The experiment is described as follows: FACS; MDA-MB-231 cells, left table.
For experiment [16] the target is unchanged. As to the kind of experiment: inhibition of cell-surface CD73 enzyme activity; left panel.
The target is the same in experiment [17]. The experiment is described as follows: inhibition of cell-surface CD73 enzyme activity; right panel.

Positions count from the first letter of the chain named. Several values for one entry are separate records, joined by “and”; a condition that tells them apart may be missing. Identical values can stand only once. Like-named read-outs stand apart in the source and are kept apart here.

B1: mAb001c (antibody, V domains shown)
VH: QVQLQQSGPELVKPGASVRISCKTSGYTFTNYYIYWVKQRPGQGLEWIGWIYPGNLNIKYNEKFKGKSTLTADKSSSTAFMQLSSLTSEDSAVYFCARDDNYAWFAYWGQGTLVTVSS
VL: DIVMTQSHKFMSTSIGDRVSITCKASQDVSTAVAWYQQKPGQSPKLLIYWTNTRHTGVPDRFTGNTSGTEHTLTISSVQAEDLALYYCQQHYSTPFTFGSGTTLEIK
B1: the IC50 in experiment [1] turned out to be 0.04 nM; in experiment [2], 0.04 nM; in experiment [5] it was 0.02 nM; in [6] it was 0.03 nM. For the same molecule, the EC50 is 0.618 nM in [3], 0.45 nM in [4], 1.19 nM in [7] and 1.48 nM in experiment [8].

B2: mAb001c-VK-SGS (antibody, V domains shown)
VH: B1 VH
VL: B1 VL with N65S, T66G
B2: the EC50 in experiment [9] was 0.099 nM and 0.054 nM; in [10], 1.65 nM; in experiment [11], 0.073 nM; in experiment [8] it was 1.62 nM.

B3: Hu001c-23 (antibody, V domains shown)
VH: QVQLVQSGAEVKKPGASVKVSCKASGYTFTNYYIYWVKQRPGQGLEWIGWIYPGNLNIKYNEKFKGRVTITADKSASTAYMELSSLRSEDTAVYYCARDDNYAWFAYWGQGTLVTVSS
VL: DIQMTQSPSSLSASVGDRVTITCKASQDVSTAVAWYQQKPGKAPKLLIYWTNTRHTGVPSRFSGSGSGTDHTLTISSLQPEDFATYYCQQHYSTPFTFGQGTKLEIK
For B3, the IC50 is 0.07 nM in experiment [1], 0.07 nM in experiment [2], 0.04 nM in experiment [5] and 0.03 nM in experiment [6]. Besides, the EC50 was 0.033 nM in experiment [9]; 0.593 nM in [3]; 0.4 nM in [4]; 1.48 nM in experiment [10]; 1.3 nM in experiment [8].

B4: mAb002c (antibody, V domains shown)
VH: QVQLQQPGAELVKPGASVRLSCKASGYTLTSYWMHWVKKRPGQGLEWIGEINPSNGRSNYNEKFKSKATLTVDRSSSTVYMQLGSLTSEDSAVYYCARRGVSGNYFDYWGQGTTLTVSS
VL: DIKMTQSPSSMYASLGERVTMTCKASQDINTYLSWFQQKPGKSPKTLIYRSNILVDGVPSRFSGSRSGQDYYLTITSLEYEDMGIYYCLQYDEFPYTFGGGTKLELK
With B4, the EC50 in experiment [12] came out at 0.53 nM; in experiment [13], 0.466 nM; in [14] it was 0.658 nM; in experiment [15] it was 0.466 nM; in [7], 0.544 nM. In addition, the IC50 in experiment [1] was determined as 0.039 nM; in experiment [2], 0.039 nM; in [5], 0.038 nM; in experiment [6], 0.037 nM; in experiment [16], 0.317 nM; in experiment [17], 0.363 nM.

B5: mAb002c-VH-NA (antibody, V domains shown)
VH: B4 VH with G56A
VL: B4 VL
In experiment [11], B5 gave an EC50 of 0.051 nM.

B6: mAb002c-VK-SG (antibody, V domains shown)
VH: B4 VH
VL: B4 VL with D56S
Turning to B6, in experiment [11], the midpoint of the response, the EC50, lay at 0.063 nM.

B7: mAb002c-VH-QG (antibody, V domains shown)
VH: B4 VH with N55Q
VL: B4 VL
Molecule B7 registered an EC50 in [11] of 0.05 nM.
